In patent US20100081612A1 (GENERAL HOSPITAL, published 2010):
Where no end group is shown, it is not given here.

T1: wild-type human PTHR (human, UniProt Q03431 27-593)
T1 sequence (looked up): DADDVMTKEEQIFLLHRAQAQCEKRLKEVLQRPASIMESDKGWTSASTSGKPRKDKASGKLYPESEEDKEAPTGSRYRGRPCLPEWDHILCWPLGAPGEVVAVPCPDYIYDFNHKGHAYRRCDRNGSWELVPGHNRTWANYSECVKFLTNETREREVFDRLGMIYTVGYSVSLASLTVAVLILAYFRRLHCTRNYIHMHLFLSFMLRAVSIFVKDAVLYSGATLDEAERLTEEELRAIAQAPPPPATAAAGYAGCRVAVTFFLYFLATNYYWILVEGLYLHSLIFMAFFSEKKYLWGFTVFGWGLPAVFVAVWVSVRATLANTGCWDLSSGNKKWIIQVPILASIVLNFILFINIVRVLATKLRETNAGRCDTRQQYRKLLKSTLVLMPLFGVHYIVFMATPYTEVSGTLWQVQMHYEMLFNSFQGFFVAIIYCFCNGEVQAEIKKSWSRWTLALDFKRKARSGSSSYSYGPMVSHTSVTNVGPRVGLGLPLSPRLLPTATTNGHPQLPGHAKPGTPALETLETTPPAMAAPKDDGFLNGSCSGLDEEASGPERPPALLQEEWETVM

B1: human PTH(1-31)NH2 (peptide)
peptide: SVSEIQLMHNLGKHLNSMERVEWLRKKLQDV-NH2
notes: also called hPTH(1-31)NH2; parental PTH(1-31)NH2 peptide
B2: PTH(1-31)NH2 Glu^19→Ala (peptide)
peptide: SVSEIQLMHNLGKHLNSMARVEWLRKKLQDV-NH2
B3: PTH(1-31)NH2 Gln^29→Ala (peptide)
peptide: SVSEIQLMHNLGKHLNSMERVEWLRKKLADV-NH2
B4: PTH(1-31)NH2 Val^21→Ala (peptide)
peptide: SVSEIQLMHNLGKHLNSMERAEWLRKKLQDV-NH2
B5: PTH(1-31)NH2 Leu^28→Ala (peptide)
peptide: SVSEIQLMHNLGKHLNSMERVEWLRKKAQDV-NH2
B6: PTH(1-31)NH2 Asp^30→Ala (peptide)
peptide: SVSEIQLMHNLGKHLNSMERVEWLRKKLQAV-NH2
B7: PTH(1-31)NH2 Trp^23→Ala (peptide)
peptide: SVSEIQLMHNLGKHLNSMERVEALRKKLQDV-NH2
B8: PTH(1-31)NH2 Lys^27→Ala (peptide)
peptide: SVSEIQLMHNLGKHLNSMERVEWLRKALQDV-NH2
B9: PTH(1-31)NH2 Met^18→Ala (peptide)
peptide: SVSEIQLMHNLGKHLNSAERVEWLRKKLQDV-NH2
B10: PTH(1-31)NH2 Leu^24→Ala (peptide)
peptide: SVSEIQLMHNLGKHLNSMERVEWARKKLQDV-NH2
B11: PTH(1-31)NH2 Glu^22→Ala (peptide)
peptide: SVSEIQLMHNLGKHLNSMERVAWLRKKLQDV-NH2
B12: PTH(1-31)NH2 Val^31→Ala (peptide)
peptide: SVSEIQLMHNLGKHLNSMERVEWLRKKLQDA-NH2
B13: PTH(1-31)NH2 Ser^17→Ala (peptide)
peptide: SVSEIQLMHNLGKHLNAMERVEWLRKKLQDV-NH2
B14: PTH(1-31)NH2 Lys^26→Ala (peptide)
peptide: SVSEIQLMHNLGKHLNSMERVEWLRAKLQDV-NH2
B15: PTH(1-31)NH2 Arg^25→Ala (peptide)
peptide: SVSEIQLMHNLGKHLNSMERVEWLAKKLQDV-NH2
B16: PTH(1-31)NH2 Arg^20→Ala (peptide)
peptide: SVSEIQLMHNLGKHLNSMEAVEWLRKKLQDV-NH2

What follows are binders tested against T1, wild-type human PTHR (assay: cell-based or functional assay).

| inositol phosphate (IP) production, peptide at 1×10^-6 M | Binder |
| --- | --- |
| 4 fold | B1 |
| 4 fold | B2 |
| 4 fold | B3 |
| 4 fold | B4 |
| 4 fold | B5 |
| 4 fold | B6 |
| 4 fold | B7 |
| 4 fold | B8 |
| 4 fold | B9 |
| 4 fold | B10 |
| 4 fold | B11 |
| 4 fold | B12 |
| 4 fold | B13 |
| 4 fold | B14 |
| 4 fold | B15 |
| 4 fold | B16 |

What follows are binders tested against T1, wild-type human PTHR (assay: competition binding, HKRK-B7 cells, 125I-PTH(1-34) tracer).

| fold enhancement in binding affinity vs PTH(1-31)NH2 | fold change in binding affinity vs PTH(1-31)NH2 | fold reduction in binding affinity vs PTH(1-31)NH2 | Binder |
| --- | --- | --- | --- |
| ≤ 2 fold | – | – | B2 |
| ≤ 2 fold | – | – | B3 |
| – | ≤ 2 fold | – | B6 |
| – | – | 19 fold | B7 |
| – | ≤ 2 fold | – | B9 |
| – | – | 12 fold | B10 |
| ≤ 2 fold | – | – | B11 |
| – | ≤ 2 fold | – | B13 |
| – | ≤ 2 fold | – | B14 |

Molecular target: T1, wild-type human PTHR
Test: as above
Remark: another data set of the same source
Protocol: Receptor binding—Binding to the wild-type human PTHR in intact HKRK-B7 cells and ROS 17/2.8 cells was assessed using ¹²⁵I-PTH(1-34) as a tracer radioligand, as described (Shimizu, M., (2001) Endocrinology 142:3068-3074). In brief, the cells in 24-well plates (about 500,000 cells per well) were incubated in binding buffer containing radioligand (about 100,000 cpm per well) with or without unlabeled peptide ligand (3×10⁻⁹ to 1×10⁻⁵ M) for four hours at 15° C. The binding mixture was then removed by aspiration, the cells were rinsed three times with binding buffer, lysed in 1 M NaOH, and the entire lysate was counted for gamma-irradiation in a gamma counter. Binding to PTHR-delNt in COS-7 cell membranes was assessed in 96-well, vacuum filtration plates (Multiscreen-Durapore HV, […], Millipore Corp., Millford, Mass.) using ¹²⁵I-[Aib^{1,3},M]PTH(1-15)NH₂ as a tracer radioligand, as described (Dean, T., (2006) Mol Endocrinol 20:931-942). In brief, cell membranes (20 μg/well) were incubated in membrane binding buffer containing radioligand (30,000 cpm/well) with or without unlabeled peptide ligand (3×10⁻⁹ to 1×10⁻⁵ M) for 90 minutes at 21° C. The plates were then subject to rapid vacuum filtration, the filters were washed once with buffer, detached from the plate and counted for gamma-irradiation in a gamma counter. Non-specific binding was defined as the binding observed in the presence of 1×10⁻⁶ M PTH(1-31)NH₂ for HKRK-B7 and ROS 17/2.8 cells, and 1×10⁻⁶ M [Aib^{1,3},M]PTH(1-15)NH₂ for PTHR-delNt. Specifically bound radioactivity was calculated as a percentage of the radioactivity specifically bound in the absence of competing ligand.
Alanine-Scan of the PTH(17-31) domain—Each residue in the (17-31) region of PTH(1-31)NH₂ was individually replaced with alanine and the effects of the substitutions on binding to the intact human PTHR stably expressed in HKRK-B7 cells was assessed. Competition binding studies were performed using whole cells and ¹²⁵I-PTH(1-34) (¹²⁵I-[Nle^{8,21},Tyr³⁴]ratPTH(1-34)NH₂) as a tracer radioligand.

| IC50 | Binder |
| --- | --- |
| 68 nM | B1 |
| 49 nM | B2 |
| 44 nM | B3 |
| 200 nM | B4 |
| 290 nM | B5 |
| 63 nM | B6 |
| 1310 nM | B7 |
| 217 nM | B8 |
| 92 nM | B9 |
| 807 nM | B10 |
| 36 nM | B11 |
| 176 nM | B12 |
| 57 nM | B13 |
| 125 nM | B14 |
| 281 nM | B15 |
| > 10000 nM | B16 |

These binders were tested against PTHR-delNt (human) (UniProt Q03431) (assay: competition binding, COS-7 membranes, 125I-[Aib1,3,M]PTH(1-15) tracer).

| IC50 | fold reduction in binding affinity vs PTH(1-31)NH2 | Binder |
| --- | --- | --- |
| 3670 nM | – | B1 |
| 2940 nM | – | B2 |
| 1930 nM | – | B3 |
| 5690 nM | – | B4 |
| 3460 nM | – | B5 |
| 1540 nM | – | B6 |
| 7360 nM | 2 fold | B7 |
| 7290 nM | – | B8 |
| 8800 nM | – | B9 |
| 8760 nM | 2 fold | B10 |
| 5860 nM | – | B11 |
| 4910 nM | – | B12 |
| 4580 nM | – | B13 |
| 6210 nM | – | B14 |
| 7180 nM | – | B15 |
| 19300 nM | 5 fold | B16 |
